Measured values published in patent US20070258981A1 (published 2007).
Numbering of substitutions follows the chain as printed. Names may count otherwise. Blank lines part the entries; values can stand above or below the binder they belong to.

Assays:
[1] = target: T1, human CD22 (hCD22) expressed on the cell surface (human, UniProt P20273 20-847); experiment: BHK-CD22 cell ELISA
T1 construct: whole, on cells; Used as capture agent in the BHK-CD22 cell ELISA and as target in flow cytometry; also called BHK-CD22; hCD22 expressing CHO cells

[2] = target: hCD22 immobilised on a CM5 sensor chip (BIAcore ligand) (human, UniProt P20273 20-687, limits assumed); experiment: BIAcore 3000 SPR; hCD22 amine-coupled to CM5 chip, IgG injected; global 1:1 fit
Procedure: Binding affinity of HB22.7 and RHOv2ACD/RKA were determined on a BIAcore 3000 instrument (BIAcore, Inc., Uppsala, Sweden). The ligand, hCD22, was prepared at 50 nM in 10 mM NaOAc, pH4 buffer. It was injected onto an EDC/NHS-activated CM5 sensor chip (BIAcore, Inc. Uppsala, Sweden) using a standard immobilization protocol. Following this, any unreacted active ester moieties were quenched using 1M Et-NH2 (ethanolamine; coupling reagents purchased from BIAcore, Inc.). A total of 535 and 689 RUs hCD22 remained bound to two sensor chip surfaces used in these experiments. Separately, a blank surface was prepared on each sensor chip using the identical protocol (minus protein). The blank surfaces were used as a reference cell in the experiments, and served to correct for both non-specific binding and some housekeeping artifacts.
For the kinetic experiments, HB22.7 and RHOv2ACD/RKA were prepared as two dilution series, starting at 22 nM and 100 nM, then diluted three- and two-fold, respectively, down to final concentrations of 0.03 nM and 0.39 nM in HBS-EP buffer (BIAcore, Inc., consisting of the following: 10 mM HEPES buffer, pH7.4, 150 mM NaCl, 3 mM EDTA, and 0.005% P20). Each concentration of IgG was then injected over both the CD22 and reference cell surfaces, which are connected in series. Between injections, surfaces were regenerated with a 1-minute injection of 3M MgCl2.

[3] = target: T1, human CD22 (hCD22) expressed on the …; experiment: binding to BHK-hCD22 cells
Procedure: The ability of chHB227 and its humanized variants to bind hCD22 was assessed in a cell based CD22 binding assay utilizing BHK cells expressing cell-surface human CD22 as a capture agent. Untransfected BHK cells not expressing hCD22 served as a control for non-specific binding. The BHK and BHK-CD22 lines were grown in DMEM supplemented with 10% Fetal Clone I and antibiotics. G418/Geneticin (0.75 mg/ml) was also added to the growth medium for BHK-CD22 only. The standard NCI protocol was used for the binding assay.

- binding result [1]: binds
B1: antibody of chimeric HB22.7 heavy chain (chH) with HB227RKA light chain variable region (antibody, V domains shown)
VH: QVQLKESGPGLVAPSQSLSITCTVSGFSLSDYGVNWVRQIPGKGLEWLGIIWGDGRTDYNSALKSRLNISKDNSKSQVFLKMNSLKADDTARYYCARAPGNRAMEYWGQGTSVTVSS
VL: DIVMTQSPSSLSASVGDRVTITCKASQSVTNDVAWYQQKPGKAPKLLIYYASNRYTGVPSRFSGSGSGTDFTLTISSLQPEDFATYYCQQDYRSPWTFGGGTKVEIK
notes: Human IgG1/kappa, COS-7 supernatant; VL entry may include the DPK018 leader; also called chH+RKA

- Kd [2]: 22 nM
- koff [2]: 0.00069 s⁻¹
- kon [2]: 32000 M⁻¹ s⁻¹
B2: humanized anti-hCD22 antibody RHOv2ACD/RKA (antibody, V domains shown)
VH: QVQLEESGGGVVRPGRSLRLSCAASGFTFSDYGVNWIRQAPGKGLEWVTIIWGDGRTDYNSALKSRFTVSRNNSNNTLSLQMNSLTTEDTAVYYCVRAPGNRAMEYWGQGVLVTVSS
VL: B1 VL
modifications: Labelled with Alexa Fluor 488 or 647 in some flow cytometry assays; unlabelled IgG in the BIAcore runs.
notes: VH keeps only the D30S back mutation; Labelled with Alexa Fluor 488 or 647 in some flow cytometry assays; also called HB227RHOv2ACD + HB227RKA; RHOvACD/RKA

- binding result [3]: binds
B3: humanized antibody HB227RHOv2ABCD + HB227RKA (antibody, V domains shown)
VH: B2 VH with S30D
VL: B1 VL
notes: VH without back mutations; Human IgG1/kappa, COS-7 supernatant; also called RHOv2ABCD+RKA

- binding result [1]: binds
B4: humanized antibody HB227RHF + HB227RKC (antibody, V domains shown)
VH: QVQLQESGPALVKPTQTLTLTCTVSGFSLSDYGVNWIRQPPGKALEWLGIIWGDGRTDYNSALKSRLSISKDNSKNQVVLRMTNVDPVDTATYFCARAPGNRAMEYWGQGTVVTVSS
VL: DIVMTQSPSSLSASVGDRVTITCKASQSVTNDVAWYQQKPGKAPKLLIYYASNRYTGVPDRFSGSGYGTDFTLTISSLQPEDFATYFCQQDYRSPWTFGGGTKVEIKR
notes: Human IgG1/kappa, COS-7 supernatant; also called RHF+RKC; humanized (RHF+RKC) antibody
